Test system: MS2 coat protein
Assay: apparent KD of MS2 coat protein; designed switch direction (-1 OFF switch, 1 ON switch): 1; higher = weaker reporter binding
Procedure, shortened: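 RNA switches sharing common flanks were transcribed by stalled E. coli RNA polymerase on Illumina chips. A doubling series of SNAP-549-labelled MS2 coat protein, from 0.7 or 1.5 nM to 3 µM, was applied in Tris-HCl pH 7.5 buffer with KCl, MgCl2, BSA, DTT, tRNA and Tween-20. Each step lasted 0.8–1.5 h at the bottom of the series and 10–20 min at the top. Normalised cluster fluorescence was curve-fitted, giving apparent KD as the per-design median over clusters.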

[1] = Eterna round: R95, input ligand: FMN 200 uM
[2] = Eterna round: R95, input ligand: microRNA oligo, concentration not stated
[3] = Eterna round: R95, input ligand: none
[4] = input ligand: microRNA oligo, concentration not stated

Sequence | apparent KD of MS2 coat protein [1] | apparent KD of MS2 coat protein [2] | apparent KD of MS2 coat protein [3] | apparent KD of MS2 coat protein (input ligand: FMN 200 uM) | apparent KD of MS2 coat protein [4] | apparent KD of MS2 coat protein (input ligand: none)
UCUUGGUUUUUGCUCGUUUUUUGUGUUGAACAUGAGGAUCACCCAUGUAUUGUACGGUCCGGUUUAGUGAUGAUCCA [JMF 76] (puzzle: Sensor for hsa-mir-208a) | 188 nM | 196 nM | 287 nM | – | – | –
AAUUAUUGACAUGAGGAUCACCCAUGUAAAGCAUGGAUUAACAAGCUACAAGCUUUUUGCUCGUCUUAUCCUAUAGG [Improved Bojan's design] (puzzle: Sensor for hsa-mir-208a version 2) | 55.9 nM | 34.6 nM | 58.1 nM | – | – | –
UGGCUCAGACUAGGAUAUACGUGGUCACAUGAGGAUCACCCAUGUCUCGAGCUUCGGCUCGAGGCGUAGAAGGAGUCUGAGCCA [SSNG2/6-D2] (Eterna round: R96, puzzle: Same State NG 2) | – | – | – | 145 nM | 199 nM | 184 nM
GCUCGCACGAUGACCGACAUGAGGAUCACCCAUGUGUGUCGGUAGGAUAUCUAUAUUAAGGAUUUAGAGAAGGGCCGAGCGAGC [SameState NG3 #21] (Eterna round: R96, puzzle: Same State NG 3) | – | – | – | 57.1 nM | 104 nM | 117 nM
GCAUUACAUGAGGAUCACCCAUGUCUCUAAAGUCGAGGAUAUGGGCAGGUUAUAUCCGAACCAGAAGGCGAAUUGC [SS1 Teenbexe 10] (puzzle: Same State 1) | 138 nM | 244 nM | 198 nM | – | – | –
AACAAUCUAUCUGAGGAUAUCAUGAUAAUAACAUGAGGAUCACCCAUGUGCAGGAAAACUGCAUAUGAGAAGGCAGAUAGAUUGG [Mat - Same State 2 - Mod - D20] (puzzle: Same State 2) | 100 nM | 29.4 nM | 26.5 nM | – | – | –
UUUGGGUGGCUGGAGGAUAUUCUAGUGGUUACAUGAGGAUCACCCAUGUGUCGCGCGGUACGCGAGGAGAAGGCUGGCGGCCGUU (puzzle: Same State 2) | – | 83.5 nM | – | – | – | –
UGCCUGAGUCGAGGAUAUUAUGGAUCAAUUAAUACAUGAGGAUCACCCAUGUAAUUAAUUUAACAUGAGAAGGCGACUCAGGCA [SSNG2/10-A2] (Eterna round: R96, puzzle: Same State NG 2) | – | – | – | 7.88 nM | 4.69 nM | 8.81 nM
CUGUGUUGCGGGCAGGAUAUGUAUUGGAGUACAUGAGGAUCACCCAUGUGCGGGUGUUUCACCCGACAGAAGGGCCAAUCGCGAC [JL-ss2-3.22 ViennaUCT mod] (puzzle: Same State 2) | – | 76.7 nM | – | – | – | –
CGUGGGUGGCUGGAGGAUAUUCGAGUGGUAACAUGAGGAUCACCCAUGUGUCGCGCGGUACAUGAGGAGAAGGCUGGCGGCCGGC (puzzle: Same State 2) | 225 nM | 40.1 nM | 76.2 nM | – | – | –
AAAUCAAGUAAAACAUGAGGAUCACCCAUGUGAGAAGCUUCCAAGGAUAUGGUAUGCAUGGAAACCCAGAAGGUGGUCAAAGCA [Eternabot solution 29] (Eterna round: R96, puzzle: Same State NG 3) | – | – | – | 247 nM | 181 nM | 272 nM
GGUCCAGCCUGAGCUGGACAAAAGCAUGUACAUGAGGAUCACCCAUGUUCAUGUACAAGCUUUUUGCUCGUCUUAAG [salish99_208a_r3_037] (puzzle: Sensor for hsa-mir-208a) | 719 nM | 18 nM | 740 nM | – | – | –
AUUAUUUAUGCAGGAUAUGAUUAACAUGAGGAUCACCCAUGUGGUGUUGUGAGUAAGGAGAGUGAUCAGAAGGGCAUUUUGUUU [JMF's solution 51] (Eterna round: R96, puzzle: Same State NG 2) | – | – | – | 794 nM | 321 nM | 451 nM
